4 substances from patent US20240309061A1 can be followed below.

By Kd is commonly meant the constant that tells how readily two partners part at equilibrium.

Experiment [1] addresses IL-2Rβγ subunits on U2OS cells. Put plainly: cell-based or functional assay.
For experiment [2], the target named is IL-2Rαβ subunits on U2OS cells. Put plainly: cell-based or functional assay.
In experiment [3] the target is Rhesus IL-2Rβγ on CD8+ T and NK cells in whole blood (rhesus monkey).
Experiment [4] has as its target Human IL-2Rβγ on CD8+ T and NK cells in whole blood (human) (UniProt P14784).
Experiment [5] concerns the target Cynomolgus IL-2Rα, polyhistidine-tagged (cynomolgus) (UniProt H6WS54). Put plainly: SPR (Biacore T200), ratio to human IL-2Rα. A general note: In SPR one partner is held on a chip, and binding of the other changes the refractive index at the surface.
The target of experiment [6] is Rat IL-2Rα, polyhistidine-tagged (rat) (UniProt P26897). Put plainly: SPR (Biacore T200), ratio to human IL-2Rα.
Rat IL-2Rα, polyhistidine-tagged (rat), sequence (P26897 22-235 limits assumed): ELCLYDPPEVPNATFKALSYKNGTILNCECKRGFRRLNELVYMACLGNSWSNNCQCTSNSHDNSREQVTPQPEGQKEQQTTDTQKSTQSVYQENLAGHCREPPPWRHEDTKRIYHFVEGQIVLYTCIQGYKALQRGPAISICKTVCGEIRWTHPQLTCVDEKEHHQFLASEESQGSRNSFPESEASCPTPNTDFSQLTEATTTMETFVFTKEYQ
Experiment [7] concerns the target Mouse IL-2Rα, polyhistidine-tagged (mouse) (UniProt P01590). Put plainly: SPR (Biacore T200), ratio to human IL-2Rα.
Experiment [8] deals with Human IL-2Rα, polyhistidine-tagged (human) (UniProt P01589). The experiment can be described thus: SPR (Biacore T200), ratio to human IL-2Rα.
Human IL-2Rα, polyhistidine-tagged (human), sequence (P01589 22-213 limits assumed): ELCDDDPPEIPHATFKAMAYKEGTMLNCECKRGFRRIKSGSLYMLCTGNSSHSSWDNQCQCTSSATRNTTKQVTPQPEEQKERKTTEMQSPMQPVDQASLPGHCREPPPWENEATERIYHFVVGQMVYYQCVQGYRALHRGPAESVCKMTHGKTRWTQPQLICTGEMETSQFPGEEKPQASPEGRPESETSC
Experiment [9] addresses Rhesus IL-2Rα, polyhistidine-tagged (rhesus) (UniProt Q5MNY4). The experiment can be described thus: SPR (Biacore T200), ratio to human IL-2Rα.
In experiment [10] the target is Rhesus IL-2Rβγ on CD8+ T and NK cells in whole blood (rhesus monkey). This is another data set of the same source.
For experiment [11], the target named is Cynomolgus/Rhesus IL-2Rβ, polyhistidine-tagged (cynomolgus/rhesus) (UniProt Q38J85). Put plainly: SPR (Biacore T200), His-tagged receptor.
Cynomolgus/Rhesus IL-2Rβ, polyhistidine-tagged (cynomolgus/rhesus), sequence (Q38J85 27-240 limits assumed): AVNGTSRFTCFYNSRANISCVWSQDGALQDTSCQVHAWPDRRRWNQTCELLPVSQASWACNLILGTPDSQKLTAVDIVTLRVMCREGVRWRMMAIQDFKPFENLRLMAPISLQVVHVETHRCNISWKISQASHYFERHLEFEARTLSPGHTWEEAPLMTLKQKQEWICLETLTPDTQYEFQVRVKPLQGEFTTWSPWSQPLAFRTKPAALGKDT
Experiment [12] deals with Cynomolgus IL-2Rα, polyhistidine-tagged (cynomolgus) (UniProt H6WS54). Put plainly: SPR (Biacore T200), His-tagged receptor.
Experiment [13] concerns the target Rat IL-2Rα, polyhistidine-tagged (rat) (UniProt P26897). The experiment can be described thus: SPR (Biacore T200), His-tagged receptor.
For experiment [14], the target named is Mouse IL-2Rα, polyhistidine-tagged (mouse) (UniProt P01590). The experiment can be described thus: SPR (Biacore T200), His-tagged receptor.
Mouse IL-2Rα, polyhistidine-tagged (mouse), sequence (P01590 22-236 limits assumed): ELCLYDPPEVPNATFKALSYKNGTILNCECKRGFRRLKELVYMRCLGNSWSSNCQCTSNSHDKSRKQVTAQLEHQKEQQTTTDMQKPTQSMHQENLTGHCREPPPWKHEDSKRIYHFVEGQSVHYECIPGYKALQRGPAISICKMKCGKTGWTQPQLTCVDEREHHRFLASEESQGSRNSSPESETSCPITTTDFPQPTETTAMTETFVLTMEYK
Experiment [15] concerns the target Human IL-2Rα, polyhistidine-tagged (human) (UniProt P01589). The experiment can be described thus: SPR (Biacore T200), His-tagged receptor.
Experiment [16] has as its target Rhesus IL-2Rα, polyhistidine-tagged (rhesus) (UniProt Q5MNY4). The experiment can be described thus: SPR (Biacore T200), His-tagged receptor.
Experiment [17] concerns the target Human IL-2Rβ, polyhistidine-tagged (human) (UniProt P14784). The experiment can be described thus: SPR (Biacore T200), His-tagged receptor.
The target in experiment [18] is Human IL-2Rβγ on CD8+ T and NK cells in whole blood (human) (UniProt P14784). The source holds these as a separate data set.
Human IL-2Rβγ on CD8+ T and NK cells in whole blood (human), sequence (P14784 27-551, chain 1 of 2): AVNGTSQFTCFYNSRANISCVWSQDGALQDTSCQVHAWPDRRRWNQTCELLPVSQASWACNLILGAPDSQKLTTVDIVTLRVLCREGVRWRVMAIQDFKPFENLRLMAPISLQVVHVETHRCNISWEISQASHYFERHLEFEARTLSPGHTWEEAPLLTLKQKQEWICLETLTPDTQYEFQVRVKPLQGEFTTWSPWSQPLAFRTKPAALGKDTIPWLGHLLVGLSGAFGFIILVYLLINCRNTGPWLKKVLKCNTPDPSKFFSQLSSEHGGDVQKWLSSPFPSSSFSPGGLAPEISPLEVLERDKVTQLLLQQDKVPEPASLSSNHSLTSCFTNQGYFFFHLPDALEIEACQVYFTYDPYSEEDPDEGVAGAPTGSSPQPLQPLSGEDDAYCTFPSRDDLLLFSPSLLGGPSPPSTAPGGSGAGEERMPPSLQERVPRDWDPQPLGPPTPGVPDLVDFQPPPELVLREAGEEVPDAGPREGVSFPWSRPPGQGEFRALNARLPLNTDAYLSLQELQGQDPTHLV
Human IL-2Rβγ on CD8+ T and NK cells in whole blood (human), sequence (P31785 23-369, chain 2 of 2, further chain): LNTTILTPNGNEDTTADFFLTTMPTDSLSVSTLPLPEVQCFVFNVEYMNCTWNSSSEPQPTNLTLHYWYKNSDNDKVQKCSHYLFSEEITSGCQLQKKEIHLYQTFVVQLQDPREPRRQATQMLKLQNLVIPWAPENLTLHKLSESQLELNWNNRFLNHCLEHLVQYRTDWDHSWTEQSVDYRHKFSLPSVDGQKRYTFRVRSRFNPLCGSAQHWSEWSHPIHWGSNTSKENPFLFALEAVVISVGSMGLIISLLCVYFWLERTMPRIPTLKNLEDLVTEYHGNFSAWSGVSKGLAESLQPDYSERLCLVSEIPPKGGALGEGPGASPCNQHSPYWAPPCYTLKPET
In experiment [19] the target is Cynomolgus/Rhesus IL-2Rβ, polyhistidine-tagged (cynomolgus/rhesus) (UniProt Q38J85). Put plainly: SPR (Biacore T200), ratio to human IL-2Rβ.
For experiment [20], the target named is Human IL-2Rβ, polyhistidine-tagged (human) (UniProt P14784). Put plainly: SPR (Biacore T200), ratio to human IL-2Rβ.
Human IL-2Rβ, polyhistidine-tagged (human), sequence (P14784 27-239 limits assumed): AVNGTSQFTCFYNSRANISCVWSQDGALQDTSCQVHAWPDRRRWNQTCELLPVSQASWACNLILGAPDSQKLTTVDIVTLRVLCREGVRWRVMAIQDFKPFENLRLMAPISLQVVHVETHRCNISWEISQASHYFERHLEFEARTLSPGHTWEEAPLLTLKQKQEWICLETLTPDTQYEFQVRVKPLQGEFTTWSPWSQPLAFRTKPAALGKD

Rhesus IL-2Rα, polyhistidine-tagged (rhesus), sequence (Q5MNY4 22-240 limits assumed): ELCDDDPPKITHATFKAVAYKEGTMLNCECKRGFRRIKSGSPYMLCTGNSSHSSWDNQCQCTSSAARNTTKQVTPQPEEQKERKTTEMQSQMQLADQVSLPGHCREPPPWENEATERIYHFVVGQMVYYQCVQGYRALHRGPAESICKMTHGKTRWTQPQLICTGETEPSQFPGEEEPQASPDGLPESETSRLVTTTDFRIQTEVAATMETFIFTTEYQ

With Y45R-IL-2 Fc, bivalent (Fc fusion), the Ave. EC50 of engaging IL-2Rβγ subunits (receptor engagement study, N = 3) in experiment [1] is 2.3 nM. In experiment [2], this substance came in with an Ave. EC50 of engaging IL-2Rαβ subunits (receptor engagement study, N = 3) of 30 nM.

As to R38Q/Y45F-IL-2 Fc, bivalent (Fc fusion), in [1], the Ave. EC50 of engaging IL-2Rβγ subunits (receptor engagement study, N = 3) was 3.5 nM. The substance also had an Ave. EC50 of engaging IL-2Rαβ subunits (receptor engagement study, N = 3) in experiment [2] of 7 nM.

In experiment [3], “WT-IL-2 Fc (from UniProt P01857 104-329) (Fc fusion)” had an EC50; pSTAT5 normalized gMFI in CD8 cells, rhesus whole blood (Rh donor 20-1068), flow cytometry of 4.05 nM. The EC50; pSTAT5 normalized gMFI in NK cells, human whole blood (Hu donor 2), flow cytometry in [4] came to 0.35 nM. Also, the KD/KD (hu) came to 1.1 in [5]; 3.1 in experiment [6]; 1 in experiment [7]; 1 in experiment [8]; 1.8 in [9]; 1.4 in experiment [19]. Further, the KD/KD (hu) in experiment [20] came to 1. Also, the EC50; pSTAT5 normalized gMFI in NK cells, rhesus whole blood (Rh donor 20-1068), flow cytometry in experiment [10] was 2.44 nM. The Kd in experiment [11] is 1300 nM; in experiment [12], 30 nM; in [13], 87 nM; in [14] it was 29 nM; in [15], 28 nM; in [16] it was 49 nM. The same substance returned a Kd in [17] of 940 nM. For the same substance, the EC50; pSTAT5 normalized gMFI in CD8 cells, human whole blood (Hu donor 2), flow cytometry in [18] was 1.41 nM.

Substance “R38Q/Y45F-IL-2 Fc, monovalent (from UniProt P01857 104-329) (Fc fusion)” yielded an Ave. EC50 of engaging IL-2Rβγ subunits (receptor engagement study, N = 3) in experiment [1] of 2 nM. The same substance displayed an Ave. EC50 of engaging IL-2Rαβ subunits (receptor engagement study, N = 3) in [2] of 400 nM.
